Test results taken from patent publication US5574136, “DNA encoding granulocyte colony-stimulating factor receptor and protein thereof” (Osaka Bioscience Institute, dated 1996).
Each block holds one binder with its values, some of them ahead of it.

Columns and labels:
mouse recombinant IL-6 = target: T1, mouse recombinant IL-6 (mouse, UniProt P08505); assay: competition for binding of 125I-mouse G-CSF to COS cells transfected with pJ17
T1 sequence: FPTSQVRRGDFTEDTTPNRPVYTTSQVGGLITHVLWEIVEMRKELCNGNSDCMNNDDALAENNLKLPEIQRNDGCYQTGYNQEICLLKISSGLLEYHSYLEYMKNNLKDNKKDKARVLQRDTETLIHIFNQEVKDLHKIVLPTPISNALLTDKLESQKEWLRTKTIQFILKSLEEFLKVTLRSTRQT

[1] = target: mouse recombinant LIF (leukemia inhibitory factor) (mouse, UniProt P09056); assay: as above
rat prolactin = target: T2, rat prolactin (rat, UniProt P01237); assay: as above
T2 sequence: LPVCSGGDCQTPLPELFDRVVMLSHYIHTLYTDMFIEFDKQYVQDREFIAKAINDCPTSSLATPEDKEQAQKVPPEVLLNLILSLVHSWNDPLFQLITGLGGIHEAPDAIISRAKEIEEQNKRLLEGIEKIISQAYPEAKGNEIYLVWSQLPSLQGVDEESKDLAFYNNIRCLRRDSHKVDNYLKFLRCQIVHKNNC

human recombinant M-CSF = target: T3, human recombinant M-CSF (human, UniProt P09603); assay: as above
T3 sequence: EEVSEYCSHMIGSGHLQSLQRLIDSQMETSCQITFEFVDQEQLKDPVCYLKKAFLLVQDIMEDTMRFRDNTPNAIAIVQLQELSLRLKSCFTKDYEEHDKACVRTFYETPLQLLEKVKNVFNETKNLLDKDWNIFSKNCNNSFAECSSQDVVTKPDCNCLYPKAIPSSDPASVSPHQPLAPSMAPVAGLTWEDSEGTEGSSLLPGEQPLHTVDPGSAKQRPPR

mouse recombinant GM-CSF = mouse recombinant GM-CSF (mouse, UniProt P01587); assay: as above
mouse recombinant IL-3 = mouse recombinant IL-3 (mouse, UniProt P01586); assay: as above
[2] = target: T4, mouse recombinant G-CSF (granulocyte colony-stimulating factor) (mouse, UniProt P09920, radioiodinated (125I, IODO-GEN method) where used as the labelled ligand; unlabelled where used as competitor); assay: saturation binding of 125I-G-CSF to COS cells transfected with pJ17, Scatchard plot
Method: The binding of ^125I-G-CSF to COS or NFS-60 cells was examined. COS cells grown on 15 cm plates were transfected with 20 µg of the pI62 or pJ17 plasmid. Cells were split into 6-well microtiter plates at 12 hr after the glycerol shock, and grown for 60 hr in DMEM containing 10% FCS. Cells were washed with binding medium, and incubated at 4° C. for 4 hr with ^125I-G-CSF (10 pM to 1.2 nM range). To determine the non-specific binding of ^125I-G-CSF to cells, a large excess of unlabeled G-CSF (800 nM) was incubated in the assay mixture, and the radioactivity bound to the cells was subtracted from the total binding to yield the specific binding.
For binding of G-CSF to NFS-60 cells, 5.2 ×10^6 cells were incubated at 4° C. for 4 hr with various concentrations of ^125I-G-CSF in 0.3 ml of RPMI-1640 medium containing 10% FCS and 20 mM HEPES (pH 7.3). As mentioned above, 1 ×10^6 COS cells transfected with the plasmid pJ17 were incubated with various amounts of ^125I-G-CSF with or without an excess of unlabeled G-CSF. In the FIG. 3A, the specific binding (●) is shown as the difference between total (○) and non-specific binding (Δ). FIG. 3B is the scatchard plot of G-CSF binding data in COS cells, and FIG. 3C is the saturated binding of ^125I-G-CSF to NFS-60 cells, showing total (○), non-specific (Δ) and specific (●) binding to cells. […]

[3] = target: T4, mouse recombinant G-CSF (granulocyte …); assay: saturation binding of 125I-G-CSF to NFS-60 cells, Scatchard plot
Method: For binding of G-CSF to NFS-60 cells, 5.2 ×10^6 cells were incubated at 4° C. for 4 hr with various concentrations of ^125I-G-CSF in 0.3 ml of RPMI-1640 medium containing 10% FCS and 20 mM HEPES (pH 7.3). As mentioned above, 1 ×10^6 COS cells transfected with the plasmid pJ17 were incubated with various amounts of ^125I-G-CSF with or without an excess of unlabeled G-CSF. In the FIG. 3A, the specific binding (●) is shown as the difference between total (○) and non-specific binding (Δ). FIG. 3B is the scatchard plot of G-CSF binding data in COS cells, and FIG. 3C is the saturated binding of ^125I-G-CSF to NFS-60 cells, showing total (○), non-specific (Δ) and specific (●) binding to cells. The specific binding is the difference between the total and non-specific binding. FIG. 3D is the scatchard plot of G-CSF binding data on NFS-60 cells. […] If the transfection efficiency of COS cells was assumed to be 10 to 20% (Sympayrac and Danna, Proc. Natl. Acad. Sci. USA, 78, 7575–7578 (1981)), the positively transfected COS cells probably expressed the recombinant G-CSF receptor at 1.5-3.0 ×10^5 molecules per cell.

[4] = target: T4, mouse recombinant G-CSF (granulocyte …); assay: saturation binding of murine 125I-G-CSF to COS cells transfected with pHQ3, Scatchard plot

binding result (mouse recombinant IL-6): no binding | binding result [1]: no binding | binding result (rat prolactin): no binding | binding result (human recombinant M-CSF): no binding | binding result (mouse recombinant GM-CSF): no binding | binding result (mouse recombinant IL-3): no binding | Kd [2]: 0.29 nM
B1: recombinant murine G-CSF receptor expressed on COS cells (plasmids pI62, pJ17) (receptor)
chain: CGHIEISPPVVRLGDPVLASCTISPNCSKLDQQAKILWRLQDEPIQPGDRQHHLPDGTQESLITLPHLNYTQAFLFCLVPWEDSVQLLDQAELHAGYPPASPSNLSCLMHLTTNSLVCQWEPGPETHLPTSFILKSFRSRADCQYQGDTIPDCVAKKRQNNCSIPRKNLLLYQYMAIWVQAENMLGSSESPKLCLDPMDVVKLEPPMLQALDIGPDVVSHQPGCLWLSWKPWKPSEYMEQECELRYQPQLKGANWTLVFHLPSSKDQFELCGLHQAPVYTLQMRCIRSSLPGFWSPWSPGLQLRPTMKAPTIRLDTWCQKKQLDPGTVSVQLFWKPTPLQEDSGQIQGYLLSWNSPDHQGQDIHLCNTTQLSCIFLLPSEAQNVTLVAYNKAGTSSPTTVVFLENEGPAVTGLHAMAQDLNTIWVDWEAPSLLPQGYLIEWEMSSPSYNNSYKSWMIEPNGNITGILLKDNINPFQLYRITVAPLYPGIVGPPVNVYTFAGERAPPHAPALHLKHVGTTWAQLEWVPEAPRLGMIPLTHYTIFWADAGDHSFSVTLNISLHDFVLKHLEPASLYHVYLMATSRAGSTNSTGLTLRTLDPSDLNIFLGILCLVLLSTTCVVTWLCCKRRGKTSFWSDVPDPAHSSLSSWLPTIMTEETFQLPSFWDSSVPSITKITELEEDKKPTHWDSESSGNGSLPALVQAYVLQGDPREISNQSQPPSRTGDQVLYGQVLESPTSPGVMQYIRSDSTQPLLGGPTPSPKSYENIWFHSRPQETFVPQPPNQEDDCVFGPPFDFPLFQGLQVHGVEEQGGF

Kd [3]: 0.18 nM
B2: native murine G-CSF receptor on NFS-60 cells (receptor)
chain: B1 chain

Kd [4]: 0.55 nM
B3: human G-CSF receptor, class 1 (plasmid pHQ3), expressed on COS cells (receptor)
chain: EECGHISVSAPIVHLGDPITASCIIKQNCSHLDPEPQILWRLGAELQPGGRQQRLSDGTQESIITLPHLNHTQAFLSCCLNWGNSLQILDQVELRAGYPPAIPHNLSCLMNLTTSSLICQWEPGPETHLPTSFTLKSFKSRGNCQTQGDSILDCVPKDGQSHCCIPRKHLLLYQNMGIWVQAENALGTSMSPQLCLDPMDVVKLEPPMLRTMDPSPEAAPPQAGCLQLCWEPWQPGLHINQKCELRHKPQRGEASWALVGPLPLEALQYELCGLLPATAYTLQIRCIRWPLPGHWSDWSPSLELRTTERAPTVRLDTWWRQRQLDPRTVQLFWKPVPLEEDSGRIQGYVVSWRPSGQAGAILPLCNTTELSCTFHLPSEAQEVALVAYNSAGTSRPTPVVFSESRGPALTRLHAMARDPHSLWVGWEPPNPWPQGYVIEWGLGPPSASNSNKTWRMEQNGRATGFLLKENIRPFQLYEIIVTPLYQDTMGPSQHVYAYSQEMAPSHAPELHLKHIGKTWAQLEWVPEPPELGKSPLTHYTIFWTNAQNQSFSAILNASSRGFVLHGLEPASLYHIHLMAASQAGATNSTVLTLMTLTPEGSELHIILGLFGLLLLLTCLCGTAWLCCSPNRKNPLWPSVPDPAHSSLGSWVPTIMEEDAFQLPGLGTPPITKLTVLEEDEKKPVPWESHNSSETCGLPTLVQTYVLQGDPRAVSTQPQSQSGTSDQVLYGQLLGSPTSPGPGHYLRCDSTQPLLAGLTPSPKSYENLWFQASPLGTLVTPAPSQEDDCVFGPLLNFPLLQGIRVHGMEALGSF
